Values of other authors in publication PMC3320014.

Target: Protein Z-dependent protease inhibitor (Homo sapiens) (UniProt Q9UK55)
Chain of UniProt Q9UK55 (Q9UK55 22-444): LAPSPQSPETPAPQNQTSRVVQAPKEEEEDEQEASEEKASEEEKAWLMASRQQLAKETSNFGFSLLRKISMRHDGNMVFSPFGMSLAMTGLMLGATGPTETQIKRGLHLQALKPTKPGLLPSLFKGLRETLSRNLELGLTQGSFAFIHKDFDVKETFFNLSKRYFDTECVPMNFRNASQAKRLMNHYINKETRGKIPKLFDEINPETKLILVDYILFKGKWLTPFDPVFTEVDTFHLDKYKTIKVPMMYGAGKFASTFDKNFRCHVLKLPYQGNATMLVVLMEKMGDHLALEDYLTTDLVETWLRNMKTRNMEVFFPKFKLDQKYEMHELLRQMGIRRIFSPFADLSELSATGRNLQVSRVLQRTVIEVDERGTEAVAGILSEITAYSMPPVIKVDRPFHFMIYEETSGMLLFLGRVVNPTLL

Kd: 7 nM
Substance: Protein Z (from UniProt P22891)
